Measured values as given in US20020045591A1, “Methods and therapeutic compositions for treating cancer” (priority 1998, published 2002).

B1: α-catenin Δβ: HA-tagged mutant α-catenin lacking the β-catenin binding site (amino acids 118-166) (protein)
chain: MTAVTAGNVNFRWDPKSLEIRTLAVERLLEPLVTQVTTLVNTSNKGPSNKKRGRSKKAHVLAASVEQATENFLDKGDKIAKESQFLKEELVAAVEDVRKQGDLMKSASGEFADDPCSAGTEQDLGIQYKALKPEVDKLNIMAAKRQQELKDVGHRDQMAAARGILQKNVPILYTASQACLQHFDVAAYKANRDLIYKQLQQAVTGISNAAQATASDDAAQQQGGGGELAYALNNFDKQIIVDPSTFSEQRFRPSLEERLESIISGAALMADSSCTRDDRRERIVAECNAVRQALQDLLSEYMGNAGRKERSDALNSAIDKMTKKTRDLRRQLRKAVMDHVSDSFLETNVPLLVLIEAARNGNEKEVKEYTQVFREHANKLIEVANLACSISNNEEGVKLVRMSASQLEALCPQVINAALALAAKPQSKLAQENMELFKEQWEKQVRVLTDAVDDITSIDDFLAVSENHILEDVNKCVIALQEKDVDGLDRTAGAIRGRAARVIHVVTSEMDNYEPGVYTEKVLEATKLLSNTVMPRFTEQVEAAVEALSSDPAQPMDENEFIDRSRLVYDGIRDIRKAVLMIRTPEELDDSDFETEDFDVRSKTSIQTEDDQLIAGQSARAIMAQLPQEQKAKIAEAVASFQEEKSKLDAEVSKWDDSGNDIIVLAKQMCMIMMEMTDFTRGKGPLKNTSDVISAAKKIAEAGSRMDKLGRTIADHCPDSASKQDLLAYLQRIALYCHQLNICSKVKAEVQNLGGELVVSGVDSAMSLIQAAKNLMNAVVQTVKASYVASTKYQKSQGMASLNLPAVSWKMKAPEKKPLVKREKQDETQTKIKRASQKKHVNPVQALSEFKAMESI
modifications: left off: small tags and cut ends
B2: plakoglobin: HA-tagged human plakoglobin (protein, UniProt P14923 1-745, looked up)
Junction plakoglobin: MEVMNLMEQPIKVTEWQQTYTYDSGIHSGANTCVPSVSSKGIMEEDEACGRQYTLKKTTTYTQGVPPSQGDLEYQMSTTARAKRVREAMCPGVSGEDSSLLLATQVEGQATNLQRLAEPSQLLKSAIVHLINYQDDAELATRALPELTKLLNDEDPVVVTKAAMIVNQLSKKEASRRALMGSPQLVAAVVRTMQNTSDLDTARCTTSILHNLSHHREGLLAIFKSGGIPALVRMLSSPVESVLFYAITTLHNLLLYQEGAKMAVRLADGLQKMVPLLNKNNPKFLAITTDCLQLLAYGNQESKLIILANGGPQALVQIMRNYSYEKLLWTTSRVLKVLSVCPSNKPAIVEAGGMQALGKHLTSNSPRLVQNCLWTLRNLSDVATKQEGLESVLKILVNQLSVDDVNVLTCATGTLSNLTCNNSKNKTLVTQNSGVEALIHAILRAGDKDDITEPAVCALRHLTSRHPEAEMAQNSVRLNYGIPAIVKLLNQPNQWPLVKATIGLIRNLALCPANHAPLQEAAVIPRLVQLLVKAHQDAQRHVAAGTQQPYTDGVRMEEIVEGCTGALHILARDPMNRMEIFRLNTIPLFVQLLYSSVENIQRVAAGVLCELAQDKEAADAIDAEGASAPLMELLHSRNEGTATYAAAVLFRISEDKNPDYRKRVSVELTNSLFKHDPAAWEAAQSMIPINEPYGDDMDATYRPMYSSDVPLDPLEMHMDMDGDYPIDTYSDGLRPPYPTADHMLA
modifications: HA tag
B3: α-catenin: HA-tagged chicken α-catenin in the pCGN vector (protein)
chain: TAVTAGNVNFRWDPKSLEIRTLAVERLLEPLVTQVTTLVNTSNKGPSNKKRGRSKKAHVLAASVEQATENFLDKGDKIAKESQFLKEELVAAVEDVRKQGDLMKSASGEFADDPCSSVKRGNMVRAARALLSAVTRLLILADMADVYKLLVQLKVVEEGILKLRNAGTEQDLGIQYKALKPEVDKLNIMAAKRQQELKDVGHRDQMAAARGILQKNVPILYTASQACLQHFDVAAYKANRDLIYKQLQQAVTGISNAAQATASDDAAQQQGGGGELAYALNNFDKQIIVDPSTFSEQRFRPSLEERLESIISGAALMADSSCTRDDRRERIVAECNAVRQALQDLLSEYMGNAGRKERSDALNSAIDKMTKKTRDLRRQLRKAVMDHVSDSFLETNVPLLVLIEAARNGNEKEVKEYTQVFREHANKLIEVANLACSISNNEEGVKLVRMSASQLEALCPQVINAALALAAKPQSKLAQENMELFKEQWEKQVRVLTDAVDDITSIDDFLAVSENHILEDVNKCVIALQEKDVDGLDRTAGAIRGRAARVIHVVTSEMDNYEPGVYTEKVLEATKLLSNTVMPRFTEQVEAAVEALSSDPAQPMDENEFIDRSRLVYDGIRDIRKAVLMIRTPEELDDSDFETEDFDVRSKTSIQTEDDQLIAGQSARAIMAQLPQEQKAKIAEAVASFQEEKSKLDAEVSKWDDSGNDIIVLAKQMCMIMMEMTDFTRGKGPLKNTSDVISAAKKIAEAGSRMDKLGRTIADHCPDSASKQDLLAYLQRIALYCHQLNICSKVKAEVQNLGGELVVSGVDSAMSLIQAAKNLMNAVVQTVKASYVASTKYQKSQGMASLNLPAVSWKMKAPEKKPLVKREKQDETQTKIKRASQKKHVNPVQALSEFKAMESI
modifications: left off: small tags and cut ends
notes: HA-tagged chicken α-catenin in the pCGN vector

How the values were obtained:
SW480 cells = assay: Double immunofluorescence of β-catenin in SW480 cells (Example 2); assay type: cell-based, human; conditions: transfected SW480 cells, FIG. 19B
Source text: (§1) Immunofluorescence Microscopy: Cells cultured on glass coverslips were fixed with 3.7% paraformaldehyde in PBS and permeabilized with 0.5% Triton X-100. Monoclonal antibodies against human plakoglobin (11E4), β-catenin (5H10), the COOH terminus of β-catenin (6F9) and α-catenin (1G5) were described and kindly provided by Drs. M. Wheelock and K. Johnson (Univ. Toledo, Ohio). The secondary antibody was FITC- or Cy3-labeled goat anti mouse IgG (Jackson ImmunoResearch Laboratories, West Grove, Pa.). Polyclonal antiserum against β-catenin, monoclonal antibody against pan cadherin (CH-19), vinculin ([…]) and α-actinin (BM75.2) were from Sigma (Holon, Israel). Monoclonal antibodies against the splicing factor SC35 and the HA epitope were kindly provided by Dr. D. Helfman (CSH Laboratory, N.Y.). Polyclonal rabbit antibody against the VSV-G epitope was a gift from Dr. JC Perriard (ETH, Zurich, Switzerland). FITC-labeled goat anti-rabbit IgG antibody was from Cappel/ICN. Monoclonal antibody against LEF-1 was kindly provided by Dr. R. Grosschedl (Univ. Calif. San Francisco, Calif.). […] Images of the fluorescent cells were recorded with a cooled, scientific grade CCD camera (Photometrics, Tucson, Ariz.). Integrated fluorescent intensities in transfected and nontransfected cells were determined, after the background was subtracted.

[1] = test system: β-catenin-dependent transactivation; assay: LEF-1 consensus luciferase transactivation in SW480 cells (Example 2); assay type: cell-based, human; conditions: co-transfection, FIG. 19A
Procedure: (§2) Cell Culture and Transfections: Canine kidney epithelial cells MDCK, human fibrosarcoma HT1080, 293-T human embryonic kidney cells, Balb/C mouse 3T3 and human colon carcinoma SW480 cell lines were cultured in Dulbecco's modified Eagle's medium supplemented with 10% calf serum (Gibco, Grand Island, N.Y.) at 37° C. in the presence of 7% CO2. The human renal carcinoma cell line KTCTL60 was grown in RPMI medium and 10% calf serum. Cells were transiently transfected with the cDNA constructs described below, using Ca^2+-phosphate or lipofectamine (Gibco) and the expression of the transgene was assessed between 24 and 48 hours after transfection. In some experiments, the expression of the stably transfected NH2 terminus-deleted β-catenin (Δ57) was enhanced in HT1080 cells by overnight treatment with 2 mM sodium butyrate.
(§3) A plasmid encoding β-galactosidase (0.5 μg) was cotransfected to enable normalization for transfection efficiency. The relevant plasmid expressing catenin constructs (4.5 μg) was co-transfected with the reporter, or an empty expression vector was included. After 24-48 hours expression of the reporter (luciferase) and the control (β-galactosidase) genes were determined using enzyme assay systems from Promega (Madison, Wis.).

endogenous β-catenin = assay: Double immunofluorescence of endogenous β-catenin in transfected cells; assay type: cell-based; conditions: FIG. 18C
Source text: as §1

[2] = test system: LEF-1-driven transcription; assay: LEF-1 consensus (TOPFLASH) transactivation in 293 cells; assay type: cell-based, human; conditions: FIG. 18B
Procedure: as §2, §3

Molecule | effect on nuclear localization of β-catenin (SW480 cells) | effect on constitutive LEF-1 driven transcription [1] | nuclear translocation of endogenous β-catenin (endogenous β-catenin) | LEF-1-driven transcription, fold lower extent than β-catenin [2]
B1 | did not show this activity | abolished the transactivation inhibition capacity | – | –
B2 | – | – | resulted in nuclear translocation of endogenous β-catenin | 3 to 4 fold
B3 | sequestered to the cytoplasm | effectively blocked | – | –
